From patent US20100075326A1
Like-named read-outs stand apart in the source and are kept apart here.

Experiments:
[1] = molecular target: T1, base coil K3 (three heptad repeats), YS2H bait fused to Aga2 with C-terminal FLAG tag (yeast)
[2] = molecular target: NeGFP (partner of the row 'E3' in Figure 2d, base coil deleted, cytosolic)
[3] = molecular target: T1, base coil K3 (three heptad repeats), …; remark: listed apart in the source
[4] = molecular target: T1, base coil K3 (three heptad repeats), …; test: predicted from YS2H (flow cytometry of Myc and FLAG tags, Langmuir equation)
[5] = molecular target: T1, base coil K3 (three heptad repeats), …; test: YS2H, Kn-Flag : En-Myc: bait on the yeast surface as Aga2 fusion, secreted prey captured by it; flow cytometry with anti-Myc antibody, MFI of the whole induced population; Flag (bait) MFI of this clone 70; K3-only control Myc MFI 8
[6] = molecular target: T1, base coil K3 (three heptad repeats), …; remark: listed apart in the source
[7] = molecular target: T2, base coil K4 (four heptad repeats), YS2H bait fused to Aga2 with C-terminal FLAG tag (yeast)
[8] = molecular target: T3, base coil K5 (five heptad repeats), YS2H bait fused to Aga2 with C-terminal FLAG tag (yeast)
[9] = molecular target: T2, base coil K4 (four heptad repeats), …; test: predicted from YS2H (flow cytometry of Myc and FLAG tags, Langmuir equation)
[10] = molecular target: T3, base coil K5 (five heptad repeats), …; test: as above

Row | Binder | MFI of complemented split eGFP, secretory pathway (K3-NeGFP-Flag : E3-CeGFP-Myc); Flag MFI 67 [1] | MFI of complemented split eGFP in the cytosol, control row 'E3' (NeGFP with the base coil deleted : E3-CeGFP) [2] | MFI of complemented split eGFP in the cytosol (K3-NeGFP : E3-CeGFP, no signal sequences) [3] | Kd [4] | MFI (anti-Myc) [5] | MFI (anti-Myc) [6] | MFI (anti-Myc) [7] | MFI (anti-Myc) [8] | Kd [9] | Kd [10]
1 | VSALEKEVSALEKEVSALEKEEQKLISEEDL (modifications not checked) [acid coil E3 (three heptad repeats), secreted YS2H prey with C-terminal Myc tag] | 20 | 7 | 216 | 1270 nM | 8 |  |  |  |  | 
2 | VSALEKEVSALEKEVSALEKEVSALEKEVSALEKEEQKLISEEDL (modifications not checked) [acid coil E5 (five heptad repeats), secreted YS2H prey with C-terminal Myc tag] |  |  |  | 1290 nM |  | 10 | 653 | 1200 | 18.3 nM | 0.49 nM
3 | VSALEKEVSALEKEVSALEKEVSALEKEEQKLISEEDL (modifications not checked) [acid coil E4 (four heptad repeats), secreted YS2H prey with C-terminal Myc tag] |  |  |  |  |  |  | 68 |  | 151 nM | 
